Usually Kd stands for the concentration at which binding is half-saturated. A low value points to higher affinity.

For assay [1], the target named is Collagen type I (Sigma), immobilized. Kind of assay: adherence assay; 37°C-grown MC02152 cells on CI-coated wells.
The target of assay [2] is Mouse laminin (isolated from the EHS-sarcoma, Life Technologies) (mouse) (UniProt P19137). Kind of assay: adherence assay; 37°C-grown MC02152 cells on LN-coated wells.
The target in assay [3] is Bovine serum albumin (bovine) (UniProt P02769). Kind of assay: adherence assay; MC02152 cells (46°C) on BSA-coated wells (negative control); no IgG.
Sequence of UniProt P02769 (P02769 25-607 limits assumed): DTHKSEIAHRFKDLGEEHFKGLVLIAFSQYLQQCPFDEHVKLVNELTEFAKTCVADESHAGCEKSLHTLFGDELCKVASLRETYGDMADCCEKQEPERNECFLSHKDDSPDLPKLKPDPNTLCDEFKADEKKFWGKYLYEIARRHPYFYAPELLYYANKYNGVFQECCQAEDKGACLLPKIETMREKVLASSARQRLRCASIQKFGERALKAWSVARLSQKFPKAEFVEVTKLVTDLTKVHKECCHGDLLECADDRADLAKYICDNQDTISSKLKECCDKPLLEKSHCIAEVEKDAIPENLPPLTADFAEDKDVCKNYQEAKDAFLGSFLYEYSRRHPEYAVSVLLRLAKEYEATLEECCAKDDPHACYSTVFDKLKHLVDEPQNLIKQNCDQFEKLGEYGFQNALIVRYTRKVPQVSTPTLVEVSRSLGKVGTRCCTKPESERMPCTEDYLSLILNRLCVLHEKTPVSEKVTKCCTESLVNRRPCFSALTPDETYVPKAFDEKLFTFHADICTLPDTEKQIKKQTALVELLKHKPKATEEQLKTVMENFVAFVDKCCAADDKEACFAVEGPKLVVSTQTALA
Assay [4] has as its target Collagen type IV (Sigma). Briefly: adherence assay; 46°C-grown MC02152 cells on CIV-coated wells.
In assay [5] the target is Mouse laminin (isolated from the EHS-sarcoma, Life Technologies) (mouse) (UniProt P19137). Briefly: adherence assay; 46°C-grown MC02152 cells on LN-coated wells.
Assay [6] concerns the target Collagen type IV (Sigma). Kind of assay: adherence assay; 37°C-grown MC02152 cells on CIV-coated wells.
Assay [7] concerns the target Collagen type I (Sigma), immobilized. Kind of assay: adherence assay; MC02152 cells (46°C) on CI-coated wells; no IgG.
In assay [8] the target is Collagen type IV (Sigma). Briefly: adherence assay; MC02152 cells (46°C) on CIV-coated wells; no IgG.
In assay [9] the target is Collagen type I (Sigma), immobilized. Kind of assay: adherence assay; 46°C-grown MC02152 cells on CI-coated wells.
For assay [10], the target named is Mouse laminin (isolated from the EHS-sarcoma, Life Technologies) (mouse) (UniProt P19137). Kind of assay: adherence assay; MC02152 cells (46°C) on LN-coated wells; no IgG.
For assay [11], the target named is Bovine serum albumin (bovine) (UniProt P02769). Kind of assay: adherence assay; OG1RF cells (46°C) on BSA-coated wells (negative control); no IgG.
The target of assay [12] is Collagen type I (Sigma), immobilized. Kind of assay: adherence assay; OG1RF cells (46°C) on CI-coated wells; no IgG.
Assay [13] has the same target. Briefly: adherence assay, 35S-labelled 46°C-grown OG1RF cells on CI-coated wells (3.3% is the ace mutant TX5256).
The target in assay [14] is Mouse laminin (isolated from the EHS-sarcoma, Life Technologies) (mouse) (UniProt P19137). Kind of assay: adherence assay; OG1RF cells (46°C) on LN-coated wells; no IgG.
The target is the same in assay [15]. Described as above. The source holds these as a separate data set.
For assay [16] the target is unchanged. Kind of assay: adherence assay, 46°C-grown cells on LN-coated wells.
Assay [17] deals with Bovine serum albumin (bovine) (UniProt P02769). Kind of assay: adherence assay; OG1RF cells (46°C) on BSA-coated wells (negative control); no IgG. The source holds these as a separate data set.
Assay [18] has as its target Collagen type I (Sigma), immobilized. Briefly: adherence assay, 46°C-grown cells on CI-coated wells.
Assay [19] has as its target Collagen type IV (Sigma). Briefly: adherence assay; OG1RF cells (46°C) on CIV-coated wells; no IgG.
Assay [20] has as its target Collagen type IV (Sigma). Briefly: adherence assay, 46°C-grown cells on CIV-coated wells.
Assay [21] deals with Collagen type IV (Sigma). Kind of assay: adherence assay; OG1RF cells (46°C) on CIV-coated wells; no IgG. This is another data set of the same source.
Assay [22] deals with Collagen type I (Sigma), immobilized. Kind of assay: adherence assay; OG1RF cells (46°C) on CI-coated wells; no IgG. This is another data set of the same source.
Assay [23] concerns the target Bovine serum albumin (bovine) (UniProt P02769). Kind of assay: adherence assay; V583 cells (46°C) on BSA-coated wells (negative control); no IgG.
Assay [24] concerns the target Mouse laminin (isolated from the EHS-sarcoma, Life Technologies) (mouse) (UniProt P19137). Briefly: adherence assay; V583 cells (46°C) on LN-coated wells; no IgG.
For assay [25], the target named is Collagen type I (Sigma), immobilized. Kind of assay: adherence assay; V583 cells (46°C) on CI-coated wells; no IgG.
Assay [26] has as its target Collagen type IV (Sigma). Kind of assay: adherence assay; V583 cells (46°C) on CIV-coated wells; no IgG.
The target in assay [27] is Bovine Type I collagen (Collagen Corp.), immobilized on a CM5 sensor chip (bovine) (UniProt P02453). Briefly: SPR (BIAcore 1000), Scatchard analysis of equilibrium responses, 1-70 µM Ace A over immobilised collagen; three measurements. On the technique in general: Surface plasmon resonance follows binding to a sensor surface in real time, without labels.
Sequence of UniProt P02453 (P02453 162-1217, chain 1 of 2): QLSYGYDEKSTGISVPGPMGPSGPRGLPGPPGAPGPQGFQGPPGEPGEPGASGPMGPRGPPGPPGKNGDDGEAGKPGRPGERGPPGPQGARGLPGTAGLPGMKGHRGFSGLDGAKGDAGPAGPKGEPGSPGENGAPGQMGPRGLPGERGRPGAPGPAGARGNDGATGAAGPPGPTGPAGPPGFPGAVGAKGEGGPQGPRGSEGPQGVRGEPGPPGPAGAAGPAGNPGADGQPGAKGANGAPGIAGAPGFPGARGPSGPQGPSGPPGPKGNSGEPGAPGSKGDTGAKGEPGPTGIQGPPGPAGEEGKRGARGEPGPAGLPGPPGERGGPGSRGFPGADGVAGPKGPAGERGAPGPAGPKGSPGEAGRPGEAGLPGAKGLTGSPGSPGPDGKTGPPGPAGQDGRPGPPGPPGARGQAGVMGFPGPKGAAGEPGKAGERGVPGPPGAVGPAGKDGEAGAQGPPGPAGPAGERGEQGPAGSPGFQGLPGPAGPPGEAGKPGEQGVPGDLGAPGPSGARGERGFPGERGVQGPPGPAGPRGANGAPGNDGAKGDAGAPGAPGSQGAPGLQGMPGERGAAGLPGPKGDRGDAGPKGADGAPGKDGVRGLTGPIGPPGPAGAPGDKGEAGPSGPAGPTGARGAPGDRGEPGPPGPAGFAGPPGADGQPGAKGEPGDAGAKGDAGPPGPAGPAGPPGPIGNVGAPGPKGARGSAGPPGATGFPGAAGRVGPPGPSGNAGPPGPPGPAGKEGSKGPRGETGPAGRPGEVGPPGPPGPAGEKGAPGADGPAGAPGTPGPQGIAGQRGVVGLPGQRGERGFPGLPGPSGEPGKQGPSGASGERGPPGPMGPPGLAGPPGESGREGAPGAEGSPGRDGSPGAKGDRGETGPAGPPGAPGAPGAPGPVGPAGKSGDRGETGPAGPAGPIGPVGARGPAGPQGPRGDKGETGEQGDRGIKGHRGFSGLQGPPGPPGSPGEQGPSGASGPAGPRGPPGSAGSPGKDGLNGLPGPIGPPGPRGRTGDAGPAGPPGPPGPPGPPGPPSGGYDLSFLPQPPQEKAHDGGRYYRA
Sequence of UniProt P02453 (P02465 80-1117, chain 2 of 2, further chain): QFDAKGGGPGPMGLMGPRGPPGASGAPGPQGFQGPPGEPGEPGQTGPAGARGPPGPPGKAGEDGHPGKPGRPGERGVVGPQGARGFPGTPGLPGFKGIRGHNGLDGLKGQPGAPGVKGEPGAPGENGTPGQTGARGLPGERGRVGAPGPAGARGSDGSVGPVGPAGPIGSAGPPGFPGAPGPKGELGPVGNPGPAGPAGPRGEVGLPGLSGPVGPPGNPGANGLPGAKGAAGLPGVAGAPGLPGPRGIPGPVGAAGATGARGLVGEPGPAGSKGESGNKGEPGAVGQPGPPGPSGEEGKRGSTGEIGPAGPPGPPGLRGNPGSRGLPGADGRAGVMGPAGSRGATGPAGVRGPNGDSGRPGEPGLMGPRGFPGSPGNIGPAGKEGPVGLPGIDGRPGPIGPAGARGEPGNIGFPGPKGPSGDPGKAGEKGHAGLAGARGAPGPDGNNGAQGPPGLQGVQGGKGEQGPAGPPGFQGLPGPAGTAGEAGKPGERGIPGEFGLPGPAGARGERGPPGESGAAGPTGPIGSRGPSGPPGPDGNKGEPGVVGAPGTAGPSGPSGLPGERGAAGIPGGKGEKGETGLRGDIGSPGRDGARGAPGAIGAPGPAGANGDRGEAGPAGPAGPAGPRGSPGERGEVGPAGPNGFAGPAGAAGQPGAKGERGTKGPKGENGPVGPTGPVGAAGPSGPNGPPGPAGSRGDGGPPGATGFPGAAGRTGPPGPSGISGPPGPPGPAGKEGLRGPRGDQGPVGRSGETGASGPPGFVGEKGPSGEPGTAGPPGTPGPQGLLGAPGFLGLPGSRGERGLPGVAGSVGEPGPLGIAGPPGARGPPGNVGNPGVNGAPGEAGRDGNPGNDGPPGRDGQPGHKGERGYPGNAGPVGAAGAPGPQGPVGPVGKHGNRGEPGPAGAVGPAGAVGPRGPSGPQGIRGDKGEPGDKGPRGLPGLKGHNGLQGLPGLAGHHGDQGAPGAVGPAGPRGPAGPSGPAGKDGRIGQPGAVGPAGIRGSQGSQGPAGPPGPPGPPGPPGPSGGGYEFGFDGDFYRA

With “Ace protein of E. faecalis strain MC02152 (native; on cells or in mutanolysin extract)”, the % of cells bound was 6% in assay [1]; 7.1% in assay [2]; 0.6% in [3]; 38% in assay [4]; 41% in [5]; 8.9% in assay [6]. For the same substance, the % of cells bound turned out to be 26% in [7], 27.7% in assay [8], 29% in [9] and 26.7% in [10].

Turning to “Ace protein of E. faecalis strain OG1RF (native; on 46°C-grown cells or in mutanolysin-PMSF extracts)”, the % of cells bound in assay [11] was 0.9%; in assay [12], 25.6%; in assay [13] it was 21.1%; in [14] it was 32%; in [15] it was 31.9%; in assay [17] it was 0.6%. For the same substance, the figures for the % of cells bound in [19], in [21] and in [22] were 27.7%, 29.6% and 24.6%, respectively. Also, the figures for the fold decrease in adherence, ace mutant TX5256 against OG1RF in assay [16] and in assay [20] were 32.9 fold and 27.4 fold, respectively. Also, the fold decrease in percentage of binding, ace mutant TX5256 against OG1RF in [18] was 6.5 fold.

For the substance “Ace protein of E. faecalis strain V583 (native; on 46°C-grown cells or in mutanolysin extract)”, the % of cells bound in assay [23] came out at 0.7%; in assay [24], 29.4%; in assay [25] it was 29.2%; in [26], 38.1%.

“Recombinant E. faecalis EF1 Ace A domain (N-terminal His6-tag fusion protein)” returned a Kd in [27] of 48 µM.

The record behind these values is patent EP1177203B1.
